A short description of the data set: soluble on expression in E. coli; label from the status in PepcDB or PDB records.
In the case of “MGSDKIHHHHHHVSATISDLDRLLVAIAAIPTPWKEWPGGYPGRLDLALVDAVMSIRFRYGRERKDGSWTGARGAVLRYQAYSDHVAPAEKMKNLANQDPIALERILNRQKVHSGKTKACAIVEAAQRFLAIDVTEPAHLRPDDAEHRAQYTGVSGLGPVTWEYFTMLLSHDGVKADTWIRRFVERSVQRNVSSDEAGALIKEAANKLDVRETKLDYAVWNYASTTRLETMPKLS”, the “soluble on expression in E. coli” value was “not soluble”. The entry for “MGSDKIHHHHHHVSDTVDHNAWKTTGVVVIQNDVLTLAGSNARALLNDGKGYTNFELDMDVRTTTGGKGYIGIHTDATDRKGYRIALNNDREDPVWWRMTGSLVSVRNLTKSFVKENEWFKMNIRVEGRLIRVRINGETVVEYIEPSKPFRLKENAKALLSQGTISLVGTGRGNLQFKNISLEAFSAKGIDIPAQWANAVDEQTDEIIRLHQEDFPVLDYHVHLKGGLTKEVAARQSRQTGVNYGLAINCGIGFSITNDTELYNYLDTMRTQPFILAMQAEGREWVTTFSEAARNSFDYVFTDAMTFLDHKGRRTHLWVNKEVIIDDEQAYMDMMLDRICSVLEEPVDMYVNSCFLPDAMSDRYDMFWTEERIDRFVNALAKSGKALEINELYHIPNKAIIQKAKAAGVKFTFGSNNITPEVGTLDYCIRMKKECGLTAQDMYKPHINI” is “not soluble”; for “MGSDKIHHHHHHVSVPTQHHLSAERLDQSAQFARITSTVEAPVLSLWLPDPQQAVPSACGRAVAGHDGPSEGAGGQRQGGESGQLCRAHLRLQPGPVLAGEAEAPPTRPQFLLVVATHLQRSFTREVKLHGRCPRRVRRPFHLITQIDNQVRGCRPDLTQHRREREGVPVHVADDCHSHPSSLAQTGAAPPANMRPMSILPDWRIRELAQAGMIEPFEDRLIRTAENGHVISYGLSSFGYDLRCADEWKVFTNVHGALVDPKNFDERSFVDLQANAIIIPPNSFVLARSLEYLRIPENVMVVALGKSTYARCGIVANVTPLEPGWEGHVTLEFSNTTPLPAKMYAFEGCVQLLFFEGERPAVTYRDRGGKYQKQRGVTLPRL” it is “not soluble”. For “MGSDKIHHHHHHVVRKINFMNLIELLKKIKRKILAQMFNLNYRPYTHTTVIFESFGGRQISDSPLAIYKELKKTHPEYRLIWVVNKGLATQAEKNGYDYVIRGSFKWVRTIEKAQVWVENARLPQWVRKPDHIKLIQTWHGTPLKKLGLDIKNVVMPGTNTERYHQNFVREANRWDVLISPNTYSTNIFRQAFGYQNKIVEIGYPRNDKLANPTKEEIKLLKQKLGIPLDKKVIMYAPTYRDNQFFQKGKYSFELPFSLKEFQERFGSNAVLLLRMHYLIANSMDISGFEDFAYDVSSYADISELYLVSDLLITDYSSVFFDYAYLKRPILFYPYDYEIYKDELRGFYLDYQKDLPGKIAYNSVDLYDEIENELKENDISNNQQFEMFYKRFCGLNAGNASKRIVEEIERNL”, the “soluble on expression in E. coli” value is listed as “not soluble”.

With “MGSDKIHHHHHHYYLIVSQLLGDTASVKLLVPPGANPHLFSLKPSDAKTLEEADLIVANGLGLEPYLEKYREKTVFVSDFIPALLLIDDNPHIWLDPFFLKYYIVPGLYQVLIEKFPEKQSEIKQKAEEIVSGLDTVIRDSFKALLPYTGKTVVMAHPSFTYFFKEFGLELITLSSGHEHSTSFSTIKEILRKKEQIVALFREPQQPAEILSSLEKELRMKSFVLDPLGVNGEKTIVELLRKNLSVIQEALK”, the “soluble on expression in E. coli” value is recorded as “not soluble”.

For “MGSSHHHHHHGGTGENLYFQGGSGRPAGTLASFLERCSARKRGRGCVVLTGAGCSTESGIPDYRGPNGQYHRADFVLLTFQKFMRDDNEKRRYWARSMLGYSTMCGASCNAAHMALQAFTKSGAVAHILTQNVDGLHHLATYGGVGDAEEEHYYKYTTSDAPLKELHGNIHNVICTSCGFFMPRARLQRELRERNPGFYEQYGADVSRTRPDGDYSAPTEAVNAMHLVMCPRCNGFFKPHVVLFGENVPKPIVEATMSLVRDKASCLLCLGTSLQVYSAYRYVLQANQLGIPVAIVNAGTTRGDAIADLKLDVESVGSVLAETAHEMLGVPASMFFRRKTIQL”, the “soluble on expression in E. coli” value is “not soluble”. Under “MGSSHHHHHHGKTIFVIVPTNEEQVAFLEALAKQDELNFDWQNPPTEPGQPVVILIPSDMVEWFLEMLKAKGIPFTVYVEEGGSENLYFQGGGGGGGSEVEASPRVAMIVLEGFSGTVFHALMESGVHMPNIAHMLSSQKGVWAECATSSQSSCARAVVVENDTSGEVYVSAAAAMTSLFSGVSPREHQVYNGSLESMSMYANTSKMNPSIAKRVKDAGMKVSVVGTSHAINSLSIALGSCSRPGVLDMECAASREELLRASVDEYSGSVQLDCLASSSCNMDTRKMTSPTDPQQCSSGQAEAQFTRHLNSIFGGLAYSTQTQEAAMQNTVADNLDNSLFVFHFDALAVRAASTYLPDFQYNASSKEYVAQVYLLDALVGQVISYVRDRARSQKENWLIVGVSNHGGDDKPYAIPNPVSTSENTIAFFMATYTNNMKRFVTLAPLQRPVTQLDVLPTVLTWLNVVPFDAETSAVTAGTNTTAASPAVEARVMERRHFEGLVQGICSSGASLKNCAL” stands “not soluble”; under “MGSSHHHHHHGKTIFVIVPTNEEQVAFLEALAKQDELNFDWQNPPTEPGQPVVILIPSDMVEWFLEMLKAKGIPFTVYVEEGGSENLYFQGGGGGGSRPYGATFIAWGLAFALRAWRCLPRERVHMCRAAHRLADAKMRQRGVGKVLMPYTGASRLMPVASYSRGNRLPSCSSTEATTRCHGFLAIGSRSPTPTHQARVDMGDNDITANSSGKTSGAAAGSAPSSCDLFLSASALESSAQFLALTHVASRQEPSSSITDRNAASVTPSGSRSASGRRAPRRSHEPFTCMSRACALDFTTLSEHGSEVPSVEPASLSAMQPTTSSSSRMHGCTGAAMTTVSLPQTPVVSGAVQSPAWLPAELARTFSDSKTPLSVCSQPSKVGPSYSQMDTLSPPTYEEAVLSSSRSSSSPRIAVLSTTMRSQRLSPAVARDGAP”, “soluble”.

In the case of “MGSSHHHHHHGSLPPREDAARVARFVTHVSDWGALATISTLEAVRGRPFADVLSLSDGPPGAGSGVPYFYLSPLQLSVSNLQENPYATLTMTLAQTNFCKKHGFDPQSPLCVHIMLSGTVTKVNETEMDIAKHSLFIRHPEMKTWPSSHNWFFAKLNITNIWVLDYFGGPKIVTPEEYYNVTVQ”, the “soluble on expression in E. coli” value is given as “soluble”.

Consider “MGSSHHHHHHMQPEHVKERYKNFLNQHVGPDMSVQRCNSEIGPNNRKITLSGTDNGCKPVNTFILANKRLIKTVCGRAGSPQGNMVRSNQPFPVVKCVLNNGERHPYCEYRGTRSTRYIVLKCEEGWPVHYHEDEVNVG”, for which the “soluble on expression in E. coli” value is “soluble”. Take “MGSSHHHHHHSQDPNSAAPAAEAPLSHVQQALAELAKPKDDPTRKHVCVQVAPAVRVAIAETLGLAPGATTPKQLAEGLRRLGFDEVFDTLFGADLTIMEEGSELLHRLTEHLEAHPHSDEPLPMFTSCCPGWIAMLEKSYPDLIPYVSSCKSPQMMLAAMVKSYLAEKKGIAPKDMVMVSIMPCTRKQSEADRDWFCVDADPTLRQLDHVITTVELGNIFKERGINLAELPEGEWDNPMGVGSGAGVLFGTTGGVMEAALRTAYELFTGTPLPRLSLSEVRGMDGIKETNITMVPAPGSKFEELLKHRAAARAEAAAHGTPGPLAWDGGAGFTSEDGRGGITLRVAVANGLGNAKKLITKMQAGEAKYDFVEIMACPAGCVGGGGQPRSTDKAITQKRQAALYNLDEKSTLRRSHENPSIRELYDTYLGEPLGHKAHELLHTHYVAGGVEEKDEKK”: the “soluble on expression in E. coli” value is listed as “soluble”. In the case of “MGSSHHHHHHSSGLEVLFQGPAMATKKVHIISHSHWDREWYMAYEQHHMRLINLIDDLLEVFQTDPDFHSFHLDGQTIILDDYLKVRPEREPEIRQAIASGKLRIGPFYILQDDFLTSSESNVRNMLIGKEDCDRWGASVPLGYFPDTFGNMGQTPQLMLKAGLQAAAFGRGIRPTGFNNQVDTSEKYSSQFSEISWQGPDNSRILGLLFANWYSNGNEIPTTEAEARLFWDKKLADAERFASTKHLLMMNGCDHQPVQLDVTKAIALANQLYPDYEFVHSCFEDYLADLADDLPENLSTVQGEITSQETDGWYTLANTASARIYLKQANTRVSRQLENITEPLAAMAYEVTSTYPHDQLRYAWKTLMQNHPHDSICGCSVDSVHREMMTRFEKAYEVGHYLAKEAAKQIADAIDTRDFPMDSQPFVLFNTSGHSKTSVAELSLTWKKYHFGQRFPKEVYQEAQEYLARLSQSFQIIDTSGQVRPEAEILGTSIAFDYDLPKRSFREPYFAIKVRLRLPITLPAMSWKTLALKLGNETTPSETVSLYDDSNQCLENGFLKVMIQTDGRLTITDKQSGLIYQDLLRFEDCGDIGNEYISRQPNHDQPFYADQGTIKLNIISNTAQVAELEIQQTFAIPISADKLLQAEMEAVIDITERQARRSQEKAELTLTTLIRMEKNNPRLQFTTRFDNQMTNHRLRVLFPTHLKTDHHLADSIFETVKRPNHPDATFWKNPSNPQHQECFVSLFDGENGVTIGNYGLNEYEILPDTNTIAITLLRSVGEMGDWGYFPTPEAQCLGKHSLSYSFESITKQTQFASYWRAQEGQVPVITTQTNQHEGTLAAEYSYLTGTNDQVALTAFKRRLADNALITRSYNLSNDKTCDFSLSLPNYNAKVTNLLEKDSKQSTPSQLGKAEILTLAWKKQ”, the “soluble on expression in E. coli” value is “soluble”. Under “MGSSHHHHHHSSGLEVLFQGPLHMGIKYQKIGDVVIVKKELSEDEIREIVKRTKCKAILLYTTQITGEFRTPHVKILYGKETETIHKEYGCLFKLDVAKIMWSQGNIEERKRMAFISNENEVVVDMFAGIGYFTIPLAKYSKPKLVYAIEKNPTAYHYLCENIKLNKLNNVIPILADNRDVELKDVADRVIMGYVHKTHKFLDKTFEFLKDRGVIHYHETVAEKIMYERPIERLKFYAEKNGYKLIDYEVRKIKKYAPGVWHVVVDAKFERI” stands “soluble”; under “MGSSHHHHHHSSGLVPRGGSHMSAASSIFDFEVLDADHKPYNLVQHKGSPLLIYNVASKCGYTKGGYETATTLYNKYKSQGFTVLAFPCNQFGGQEPGNEEEIKEFVCTKFKAEFPIMAKINVNGENAHPLYEYMKKTKPGILKTKAIKWNFTSFLIDRDGVPVERFSPGASVKDIEKKLIPLLESTQSA”, “soluble”. Under “MGSSHHHHHHSSGLVPRGSHASMAAEMDWDKTVGAAEDVRRIFEHIPAILVGLEGPDHRFVAVNAAYRGFSPLLDTVGQPAREVYPELEGQQIYEMLDRVYQTGEPQSGSEWRLQTDYDGSGVEERYFDFVVTPRRRADGSIEGVQLIVDDVTSRVRARQAAEARVEELSERYRNVRDSATVMQQ” stands “soluble”. Under “MGSSHHHHHHSSGLVPRGSHMDFYKLDEKLKELKRKRVDVSIKSRKLADREIQEVSANRKPRVYSMEDVNDADESVGDTESPEKEKAFHYTVQEYDAWERRHPQGKTGQSQRGGISYDQLAKLSYEKTLRNLATQTQNSSKQDSSADEEDNKNVPKKGRIGKVQKDTKTGKITIADDDKLVNKLAVSLQSESKKRYEARKRQMQNAKTLYGVESFINDKNKQFNEKLSRESKGSE” stands “soluble”; under “MGSSHHHHHHSSGLVPRGSHMFANDATFEIKKCDLHRLEEGPPVTTVLTREDGLKYYRMMQTVRRMELKADQLYKQKIIRGFCHLCDGQEACCVGLEAGINPTDHLITAYRAHGFTFTRGLSVREILAELTGRKGGCAKGKGGSMHMYAKNFYGGNGIVGAQVPLGAGIALACKYNGKDEVCLTLYGDGAANQGQIFEAYNMAALWKLPCIFICENNRYGMGTSVERAAASTDYYKRGDFIPGLRVDGMDILCVREATRFAAAYCRSGKGPILMELQTYRYHGHSMSDPGVSYRTREEIQEVRSKSDPIMLLKDRMVNSNLASVEELKEIDVEVRKEIEDAAQFATADPEPPLEELGYHIYSSDPPFEVRGANQWIKFKSVS”, “soluble”.

The values are drawn from the DeepSol protein solubility set.
